{
  "source": "paper PMC6774351",
  "about": "(Nature, 2019)",
  "proteins": {"B1": {"name": "engineered NEK7 dimer (artificial NEK7 dimer based on the PKR dimer structure) (enzyme)", "chain": "not shown"}},
  "molecular_target": "the molecule itself",
  "assay": "SEC",
  "data": [
    {"protein": "B1", "values": [
      {"measurement": "stoichiometry N", "result": 2}
    ]}
  ]
}
